Measurements: US10556007B2, “Antibody which binds Lrg1 and methods of use” (UCL Business PLC, priority 2015, dated 2020)
Entries after “also recorded” stand apart in the source; their conditions may differ.

Assays:
[1] = tested on: laser-induced choroidal neovascularisation; assay: Rat laser-induced choroidal neovascularisation (CNV); type: in vivo; conditions: Long Evans rats, intravitreal at time of lasering, analysis 7 days later
Method: Several antibodies were tested for their ability to block CNV in the rat. In these experiments mAbs were injected intravitreally at the time of lasering, with eyes being retrieved for analysis 7 days later (FIG. 5). Long Evans rats, aged 6-8 weeks, each received 5 retinal laser burns at the same time as intravitreal delivery of […] mAb or control IgG into both eyes. Four rats were used for each mAb, so a total of 40 lesions were analysed by staining for collagen IV and the neovascular areas quantified. […] Avastin was also tested in the rat laser model (data not shown) and observed to have no effect, consistent with Avastin having low affinity for rat VEGF.

[2] = tested on: laser-induced choroidal neovascularisation; assay: Mouse model of laser-induced CNV; type: in vivo; conditions: for lesion size: C57B6 mice, intravitreal
Method: The images on the left of FIG. 17A show a typical wild-type mouse retina under normal illumination (Fundus), and under fluorescence illumination, 7 days after three laser burns were administered to the retinal pigment epithelium. Fluorescence images were captured ˜60 seconds after systemic dosing with fluorescein (Early Phase FFA) and again after ˜7 minutes (Late Phase FFA). At the time of lasering, animals received intraocular injections of either control IgG (top panels) or 15C4 (lower panels). The Early Phase FFA images show the size of the lesions, and the Late Phase images show leakage of fluorescein into the retina. Lesion sizes were quantified for 15C4 at 2.5, 5 and 10 μg doses, and also Eylea at 2 and 4 μg, and the % blocking is a measure of average lesion size relative to that observed in the controls. On the far right a similar analysis was undertaken using Eylea and Magacizumab (both at 2.1 μg) alone and in combination.
Wild type C57B6 mice were anaesthetized and received intravitreal injections of various doses of either Magacizumab, Eylea, or both in combination, immediately following laser photocoagulation of the retinal pigment epithelium. After 7 days (to allow the vascular lesions to form) the mice were again anaesthetized and examined by fluorescein angiography (FFA). Early phase FFA images (taken after 90 s) show the degree of vascularization at the lesion site. Measurement of the lesion area in the early phase images permits quantification in which percentage lesion size is normalized against the IgG4 control (FIG. 18).

[3] = Analytical size exclusion chromatography; type: physicochemical
healthy donor T cells = assay: EpiScreen T cell proliferative assay; type: cell-based, human; conditions: 20 donor T cell samples, days 5-8
Text: FIG. 21D—Summary of healthy donor T cell proliferative responses. Positive T cell responses during EpiScreen™ time course days 5-8 are shown (P). Samples inducing proliferation with SI ≥2.00 that were significant (p<0.05) were considered positive (borderline responses* SI≥1.90, p<0.05 are also shown). The frequency of positive T cell responses for proliferation are shown as a percentage at the bottom of the columns.

human Lrg1 = target: T1, human Lrg1 (Homo sapiens, UniProt P02750); assay: Anti-human Lrg1 competition ELISA against biotinylated mouse 15C4; type: binding; set-up: made in house; conditions: competition with biotinylated mouse 15C4
T1 sequence (P02750 36-347): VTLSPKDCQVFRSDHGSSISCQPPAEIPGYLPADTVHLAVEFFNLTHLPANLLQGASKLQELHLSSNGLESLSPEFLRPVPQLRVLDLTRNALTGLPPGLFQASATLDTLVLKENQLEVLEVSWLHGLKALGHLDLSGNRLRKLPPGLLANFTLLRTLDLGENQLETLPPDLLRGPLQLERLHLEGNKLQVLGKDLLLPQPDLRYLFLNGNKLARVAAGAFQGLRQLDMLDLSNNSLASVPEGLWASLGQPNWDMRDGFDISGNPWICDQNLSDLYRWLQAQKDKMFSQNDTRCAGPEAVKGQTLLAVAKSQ
Method: The chimeric antibody was expressed transiently in HEK EBNA cells and stably in NS0 mouse myeloma cells, purified and tested for binding to human Lrg1 in a competition ELISA assay. A Nunc Immuno MaxiSorp 96 well flat bottom microtitre plate (Fisher, cat. no. DIS-971-030J) was pre-coated with 0.2 μg/ml hLrg1 (supplied by UCL) overnight in 0.1 N Sodium Carbonate buffer (NaHCO3) at +4° C. The following day the plate was washed 1× with PBST and blocked with 3% BSA/PBS for 1 hour at room temperature. After washing 3× with PBST, a three-fold dilution series of chimeric, mouse or control antibodies from 100 μg/ml to 0.13 μg/ml was premixed with a constant concentration of biotinylated mouse 15C4 (0.4 μg/ml, final concentration), added to the plates and incubated for 1.5 hours at room temperature. Following 3×PBST washes, the binding of the biotinylated mAb was detected with streptavidin-HRP (Sigma, cat. no. 55512) and TMB substrate (Invitrogen, cat. no. 00-2023). The reaction was stopped with 3 M HCl, absorbance read at 450 nm on a Dynex Technologies MRX TC II plate reader and the binding curves plotted.
The properties of Magacizumab were investigated. […] An anti-hLrg1 competition ELISA was carried out. […] Bound biotinylated mouse 15C4 was detected using streptavidin-peroxidase and TMB substrate. […]

Avastin: anti-VEGF antibody Bevacizumab (Avastin) [reference compound]
blockade of angiogenesis (CNV) [1]: no effect

B1: Magacizumab: humanised 15C4 antibody comprising heavy chain variable regions VH5 and kappa light chain variable regions VK3 (antibody, V domains shown)
VH: QVQLVQSGAEVKKPGSSVKVSCKASGYTFSGYWMNWVRQAPGQGLEWIGQIYPGDGDTNYNGKFKGRVTITADKSTSTAYMELSSLRSEDTAVYYCARSITTVVLDYWGQGTTVTVSS
VL: DIVLTQSPDSLAVSLGERATISCRASQSVSTSGYSFMHWYQQKPGQPPKLLIKYASNLESGVPARFSGSGSGTDFTLTISSLQPEDFATYYCQHSWEMPLTFGQGTKLEIK
lesion size ([2]; alone, vs IgG4 control): significant reduction in lesion size
lesion size ([2]; in combination with Eylea, vs control): significant reduction in lesion size
lesion formation ([2]; intraocular injection at lasering, FFA after 7 days): Dose-Dependent Inhibition of Lesion Formation; also recorded: inhibit lesion formation with similar efficacy to the VEGF blocker Eylea
aggregation by analytical size exclusion chromatography [3]: single peak and no aggregates
T cell proliferative response (healthy donor T cells): failed to elicit a proliferative response in any of the 20 donor T cell samples

B2: chimeric: murine 15C4 variable regions combined with human IgG4 (S241P) heavy chain and Kappa light chain constant regions (antibody, V domains shown)
VH: QVQLQQSGDEVVRPGSSVKISCKASGYTFSGYWMNWVKQRPGQGLQWIGQIYPGDGDTNYNGKFKGKATLTADKSSSTAYMQLSTLTSEDSAIYFCARSITTVVLDYWGQGTTLTVSS
VL: DIVLTQSPVSLAVSLGQRATISCRASQSVSTSGYSFMHWYQQKPGQPPKFLIKYASNLESGVPARFSGSGSGTDFTLNIHPVEEEDTATYYCQHSWEMPLTFGAGTKLELK
binding profile / competition for binding to human Lrg1 (human Lrg1): very similar binding profile to mouse 15C4
